Laboratory results taken from patent publication US20110177071A1 (PERSEID THERAPEUTICS, published 2011).

T1: full-length human CD86 on HEK293 cells (human, UniProt P42081 24-329)
T1 sequence: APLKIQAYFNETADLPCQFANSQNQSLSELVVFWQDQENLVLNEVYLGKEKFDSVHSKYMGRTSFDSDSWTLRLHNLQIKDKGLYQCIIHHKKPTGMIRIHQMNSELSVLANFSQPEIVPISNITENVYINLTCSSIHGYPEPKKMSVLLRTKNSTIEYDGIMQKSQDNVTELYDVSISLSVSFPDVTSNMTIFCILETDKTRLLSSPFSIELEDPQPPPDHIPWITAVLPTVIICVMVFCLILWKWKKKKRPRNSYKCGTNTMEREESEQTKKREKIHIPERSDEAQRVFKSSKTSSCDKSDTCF

T2: human CD86-murine Ig fusion protein (human)
T2 construct: Bought (Ancell #509-820); also called hCD86-mIg
T2 chain: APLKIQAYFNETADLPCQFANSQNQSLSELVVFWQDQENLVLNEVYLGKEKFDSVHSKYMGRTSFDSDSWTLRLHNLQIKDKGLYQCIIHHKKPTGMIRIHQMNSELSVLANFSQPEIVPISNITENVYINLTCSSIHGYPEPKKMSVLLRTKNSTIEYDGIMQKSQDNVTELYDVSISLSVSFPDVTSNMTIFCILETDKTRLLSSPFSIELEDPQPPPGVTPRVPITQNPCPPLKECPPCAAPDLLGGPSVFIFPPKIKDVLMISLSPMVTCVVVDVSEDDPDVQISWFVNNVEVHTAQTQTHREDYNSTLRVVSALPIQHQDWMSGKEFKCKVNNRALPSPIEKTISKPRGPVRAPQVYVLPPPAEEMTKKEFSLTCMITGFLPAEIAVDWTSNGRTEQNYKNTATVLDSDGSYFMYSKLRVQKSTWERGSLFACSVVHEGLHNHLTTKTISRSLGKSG

T3: human CD80-murine Ig fusion protein (human)
T3 construct: Bought (Ancell #510-820); also called hCD80-mIg; human CD80-murine IgG
T3 chain: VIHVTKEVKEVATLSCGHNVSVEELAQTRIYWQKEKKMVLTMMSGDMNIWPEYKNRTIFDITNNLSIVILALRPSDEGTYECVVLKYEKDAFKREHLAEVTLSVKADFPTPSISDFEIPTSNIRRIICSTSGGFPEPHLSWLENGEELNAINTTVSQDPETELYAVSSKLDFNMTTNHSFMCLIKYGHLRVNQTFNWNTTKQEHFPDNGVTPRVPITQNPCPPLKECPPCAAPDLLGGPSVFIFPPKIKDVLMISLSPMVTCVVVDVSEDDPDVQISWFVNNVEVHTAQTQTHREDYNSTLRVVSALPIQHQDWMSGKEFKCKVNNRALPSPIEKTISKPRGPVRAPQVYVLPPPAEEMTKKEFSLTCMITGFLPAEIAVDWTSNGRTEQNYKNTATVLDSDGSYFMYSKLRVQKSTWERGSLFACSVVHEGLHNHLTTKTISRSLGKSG


Assays:
[1] = molecular target: T1, full-length human CD86 on HEK293 cells; experiment: cell-based or functional assay
[2] = molecular target: T2, human CD86-murine Ig fusion protein; experiment: SPR Biacore, hCD86-mIg captured
Procedure: (§1) All Biacore™ analyses were performed on a Biacore™ 2000 system (GE Healthcare) at room temperature (RT, 25° C.). HBS-EP buffer (10 mM HEPES (pH 7.4), 150 mM NaCl, 3 mM EDTA, 0.005% surfactant P20) was used as the flow buffer for all experiments.
(§2) Rabbit anti-mouse IgG antibody (GE Healthcare, #BR-1005-14) was immobilized on CM5 sensor chips (GE Healthcare, #BR-1000-14) according to the manufacturer's protocol. Antibody was diluted to 30 μg/ml in immobilization buffer (10 mM sodium acetate, pH 5.0 (BR-1003-51)). At a flow rate of 5 μl/minute, sensor chip CM5 was activated with a 35 μl injection of a mixture of 1-Ethyl-3-[3-dimethylaminopropyl]carbodiimide hydrochloride (EDC) and N-hydroxysuccinimide (NHS) (made by mixing equal volumes of 11.5 mg/ml EDC and 75 mg/ml NHS) (GE Healthcare, #BR-1000-50), followed by a 35 μl injection of undiluted antibody. Un-reacted sites were quenched with 35 μl of 1M ethanolamine-HCL, pH 8.5 (GE Healthcare, #BR-1000-50). […] CTLA-4 ligands human CD80-murine Ig (hCD80-mIg) (Ancell, #510-820) or human CD86-murine Ig (hCD86-mIg) (Ancell, #509-820) were bound to antibody-coated sensor chips by injection of 10 μl or 16 μl, respectively, ligand solution (2 μg/ml protein in HBS-EP buffer [10 mM HEPES pH 7.4, 150 mM NaCl, 3 mM EDTA, 0.005% (v/v) surfactant P-20, GE Healthcare, #BR-1001-88]) at a flow rate of 10 μl/min.

[3] = molecular target: T3, human CD80-murine Ig fusion protein; experiment: SPR Biacore, hCD80-mIg captured
Procedure: as §1, §2

Binder | Mean IC50 (nM), CD4+ T cell proliferation [1] | Kd [2] | Kd [3] | Binding Avidity (Relative to Orencia) [2] | Binding Avidity (Relative to Orencia) [3]
D3-34-IgG2 (Fc fusion) MHVAQPAVVLASSRGIASFVCEYASPGKANEVRVTVLRQADSQVTEVCAMTYMKGNELTFLDDPSCTGTFSGNQVNLTIQGLRAMDTGLYICKVELMYPPPYYLGIGNGTQIYVIDPEPCPDSDERKCCVECPPCPAPPVAGPSVFLFPPKPKDTLMISRTPEVTCVVVDVSHEDPEVQFNWYVDGVEVHNAKTKPREEQFNSTFRVVSVLTVVHQDWLNGKEYKCKVSNKGLPAPIEKTISKTKGQPREPQVYTLPPSREEMTKNQVSLTCLVKGFYPSDIAVEWESNGQPENNYKTTPPMLDSDGSFFLYSKLTVDKSRWQQGNVFSCSVMHEALHNHYTQKSLSLSPG | 0.05 nM | 0.131 to 0.262 nM | 0.439 to 1.75 nM |  | 
D3-54-IgG2 (Fc fusion) MHVAQPAVVLASSRGIASFVCEYASPGKANEVRVTVLRQADSQVTEVCAMTYMKENELTFLDDPICTGTFSGNQVNLTIQGLRAMDTGLYICKVELMYPPPYYLGIGNGTQIYVIDPEPCPDSDERKCCVECPPCPAPPVAGPSVFLFPPKPKDTLMISRTPEVTCVVVDVSHEDPEVQFNWYVDGVEVHNAKTKPREEQFNSTFRVVSVLTVVHQDWLNGKEYKCKVSNKGLPAPIEKTISKTKGQPREPQVYTLPPSREEMTKNQVSLTCLVKGFYPSDIAVEWESNGQPENNYKTTPPMLDSDGSFFLYSKLTVDKSRWQQGNVFSCSVMHEALHNHYTQKSLSLSPG | 0.04 nM | < 0.131 nM | 0.439 to 1.75 nM | > 40 fold | 
D3-69-IgG2 (Fc fusion) MHVAQPAVVLASSRGIASFVCEYESPGKANEIRVTVLRQADSQVTEVCAMTYMKGDELTFLDDPSCTGTFSGNQVNLTIQGLRAMDTGLYICKVELMYPPPYYEGIGNGTQIYVIDPEPCPDSDERKCCVECPPCPAPPVAGPSVFLFPPKPKDTLMISRTPEVTCVVVDVSHEDPEVQFNWYVDGVEVHNAKTKPREEQFNSTFRVVSVLTVVHQDWLNGKEYKCKVSNKGLPAPIEKTISKTKGQPREPQVYTLPPSREEMTKNQVSLTCLVKGFYPSDIAVEWESNGQPENNYKTTPPMLDSDGSFFLYSKLTVDKSRWQQGNVFSCSVMHEALHNHYTQKSLSLSPG | 0.03 nM | < 0.131 nM | < 0.439 nM | > 40 fold | > 2 fold
D3-39-IgG2 (Fc fusion) MHVAQPAVVLASSRGIASFVCEYESPGKANEVRVTVLRQADSQVTEVCAMTYMKGNELTFLDDPICTGTFSGNQVNLTIQGLRAMDTGLYICKVELMYPPPYYLGIGNGTQIYVIDPEPCPDSDERKCCVECPPCPAPPVAGPSVFLFPPKPKDTLMISRTPEVTCVVVDVSHEDPEVQFNWYVDGVEVHNAKTKPREEQFNSTFRVVSVLTVVHQDWLNGKEYKCKVSNKGLPAPIEKTISKTKGQPREPQVYTLPPSREEMTKNQVSLTCLVKGFYPSDIAVEWESNGQPENNYKTTPPMLDSDGSFFLYSKLTVDKSRWQQGNVFSCSVMHEALHNHYTQKSLSLSPG | 0.05 nM | 0.262 to 0.523 nM | 0.439 to 1.75 nM |  | 
D3-56-IgG2 (Fc fusion) MHVAQPAVVLASSRGIASFVCEYASPGKANEVRVTVLRQADSQVTEVCAMTYMKENELTFLDDPSCTGTFSGNQVNLTIQGLRAMDTGLYICKVELMYPPPYYLGIGNGTQIYVIDPEPCPDSDERKCCVECPPCPAPPVAGPSVFLFPPKPKDTLMISRTPEVTCVVVDVSHEDPEVQFNWYVDGVEVHNAKTKPREEQFNSTFRVVSVLTVVHQDWLNGKEYKCKVSNKGLPAPIEKTISKTKGQPREPQVYTLPPSREEMTKNQVSLTCLVKGFYPSDIAVEWESNGQPENNYKTTPPMLDSDGSFFLYSKLTVDKSRWQQGNVFSCSVMHEALHNHYTQKSLSLSPG | 0.04 nM | < 0.131 nM | 0.439 to 1.75 nM | > 40 fold | 
D3-52-IgG2 (Fc fusion) MHVAQPAVVLASSRGIASFVCEYASPGKANEIRVTVLRQADSQVTEVCAMTYMKGNELTFLDDPICTGTFSGNQVNLTIQGLRAMDTGLYICKVELMYPPPYYLGIGNGTQIYVIDPEPCPDSDERKCCVECPPCPAPPVAGPSVFLFPPKPKDTLMISRTPEVTCVVVDVSHEDPEVQFNWYVDGVEVHNAKTKPREEQFNSTFRVVSVLTVVHQDWLNGKEYKCKVSNKGLPAPIEKTISKTKGQPREPQVYTLPPSREEMTKNQVSLTCLVKGFYPSDIAVEWESNGQPENNYKTTPPMLDSDGSFFLYSKLTVDKSRWQQGNVFSCSVMHEALHNHYTQKSLSLSPG | 0.07 nM | 0.262 to 0.523 nM | 0.439 to 1.75 nM |  | 
D3-65-IgG2 (Fc fusion) MHVAQPAVVLASSRGIASFVCEYASPGKANEVRVTVLRQADSQVTEVCAMTYMKGNELTFLDDPSCTGTFSGNQVNLTIQGLRAMDTGLYICKVELMYPPPYYEGIGNGTQIYVIDPEPCPDSDERKCCVECPPCPAPPVAGPSVFLFPPKPKDTLMISRTPEVTCVVVDVSHEDPEVQFNWYVDGVEVHNAKTKPREEQFNSTFRVVSVLTVVHQDWLNGKEYKCKVSNKGLPAPIEKTISKTKGQPREPQVYTLPPSREEMTKNQVSLTCLVKGFYPSDIAVEWESNGQPENNYKTTPPMLDSDGSFFLYSKLTVDKSRWQQGNVFSCSVMHEALHNHYTQKSLSLSPG | 0.06 nM | < 0.131 nM | < 0.439 nM | > 40 fold | > 2 fold
D3-62-IgG2 (Fc fusion) MHVAQPAVVLASSRGIASFVCEYASPGKANEIRVTVLRQADSQVTEVCAMTYMKEDELTFLDDPSCTGTFSGNQVNLTIQGLRAMDTGLYICKVELMYPPPYYLGIGNGTQIYVIDPEPCPDSDERKCCVECPPCPAPPVAGPSVFLFPPKPKDTLMISRTPEVTCVVVDVSHEDPEVQFNWYVDGVEVHNAKTKPREEQFNSTFRVVSVLTVVHQDWLNGKEYKCKVSNKGLPAPIEKTISKTKGQPREPQVYTLPPSREEMTKNQVSLTCLVKGFYPSDIAVEWESNGQPENNYKTTPPMLDSDGSFFLYSKLTVDKSRWQQGNVFSCSVMHEALHNHYTQKSLSLSPG | 0.04 nM | < 0.131 nM | < 0.439 nM | > 40 fold | > 2 fold
D3-50-IgG2 (Fc fusion) MHVAQPAVVLASSRGIASFVCEYASPGKANEVRVTVLRQADSQVTEVCAMTYMKGDELTFLDDPICTGTFSGNQVNLTIQGLRAMDTGLYICKVELMYPPPYYLGIGNGTQIYVIDPEPCPDSDERKCCVECPPCPAPPVAGPSVFLFPPKPKDTLMISRTPEVTCVVVDVSHEDPEVQFNWYVDGVEVHNAKTKPREEQFNSTFRVVSVLTVVHQDWLNGKEYKCKVSNKGLPAPIEKTISKTKGQPREPQVYTLPPSREEMTKNQVSLTCLVKGFYPSDIAVEWESNGQPENNYKTTPPMLDSDGSFFLYSKLTVDKSRWQQGNVFSCSVMHEALHNHYTQKSLSLSPG | 0.06 nM | 0.131 to 0.262 nM | 0.439 to 1.75 nM |  | 
